# Biological target: Flag-tagged PDI-WT (UniProt P07237)
# Test: co-IP; Flag-M2 affinity resin on COS-7 lysates (50 mM TrisHCl, 150 mM NaCl); PDI-Flag co-expressed with one sGC subunit or one α construct; Western blot, densitometry of bound over input
# Flag-tagged PDI-WT, sequence (P07237 18-508): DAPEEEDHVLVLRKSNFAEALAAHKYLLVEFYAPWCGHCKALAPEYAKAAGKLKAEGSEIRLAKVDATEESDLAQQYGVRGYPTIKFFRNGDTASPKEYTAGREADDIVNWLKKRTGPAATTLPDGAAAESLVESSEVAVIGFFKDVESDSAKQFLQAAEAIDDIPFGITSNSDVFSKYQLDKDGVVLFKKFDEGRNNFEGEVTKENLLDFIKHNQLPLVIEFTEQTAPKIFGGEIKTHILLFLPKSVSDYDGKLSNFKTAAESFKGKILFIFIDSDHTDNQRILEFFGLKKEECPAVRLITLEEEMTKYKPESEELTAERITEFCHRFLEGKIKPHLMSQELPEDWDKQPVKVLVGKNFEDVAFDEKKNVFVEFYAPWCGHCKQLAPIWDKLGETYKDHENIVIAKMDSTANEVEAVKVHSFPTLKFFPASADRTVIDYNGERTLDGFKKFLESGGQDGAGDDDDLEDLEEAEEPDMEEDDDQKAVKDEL
sGC bound over input (densitometry),bound vs. input (densitometry),Substance
0.74,–,"sGC β WT, expressed in COS-7 cells (from UniProt Q02153 1-619) (enzyme)"
1.08,1.01,"sGC α WT, expressed in COS-7 cells (from UniProt Q02108 1-690) (enzyme)"

# — article PMC4664405
